Laboratory results: the supplement of paper PMC11246515
± gives the standard deviation of the averaged measurements.

Assay: total protein half-life in vivo (active degradation + dilution); higher = more stable protein
[1] = E. coli NCM3722 delta-clpP delta-lon delta-hslV, growth: N-lim chemostat, doubling time 6 h
[2] = E. coli NCM3722 delta-clpP, growth: N-lim chemostat, doubling time 6 h
[3] = E. coli NCM3722 delta-hslV, growth: N-lim chemostat, doubling time 6 h
[4] = E. coli NCM3722 delta-lon, growth: N-lim chemostat, doubling time 6 h
[5] = E. coli NCM3722 delta-smpB, growth: N-lim chemostat, doubling time 6 h
[6] = wild type E. coli NCM3722, growth: C-lim chemostat, doubling time 6 h
[7] = wild type E. coli NCM3722, growth: C-lim chemostat, doubling time 12 h
[8] = wild type E. coli NCM3722, growth: N-lim chemostat, doubling time 6 h
[9] = wild type E. coli NCM3722, growth: N-lim chemostat, doubling time 12 h
[10] = wild type E. coli NCM3722, growth: P-lim chemostat, doubling time 6 h
[11] = wild type E. coli NCM3722, growth: P-lim chemostat, doubling time 12 h
[12] = wild type E. coli NCM3722, growth: C-lim chemostat, doubling time 3 h

MGKSIVVVSAVNFTTGGPFTILKKFLAATNNKENVSFIALVHSAKELKESYPWVKFIEFPEVKGSWLKRLHFEYVVCKKLSKELNATHWICLHDITANVVTKKRYVYCHNPAPFYKGILFREILMEPSFFLFKMLYGLIYKINIKKNTAVFVQQFWMKEKFIKKYSINNIIVSRPEIKLSDKSQLTDDDSQFKNNPSELTIFYPAVPRVFKNYELIISAARKLKEQSNIKFLLTISGTENAYAKYIISLAEGLDNVHFLGYLDKEKIDHCYNISDIVCFPSRLETWGLPLSEAKERGKWVLASDFPFTRETLGSYEKKAFFDSNNDDMLVKLIIDFKKGNLKKDISDANFIYRNENVLVGFDELVNFITEEH
total protein half-life in vivo [1]: 5.98 h | total protein half-life in vivo [2]: > 8 h | total protein half-life in vivo [3]: > 8 h | total protein half-life in vivo [4]: 7.3 ± 0.89 h | total protein half-life in vivo [5]: 5.6 ± 0.084 h | total protein half-life in vivo [6]: 5.53 h | total protein half-life in vivo [7]: 10.5 h | total protein half-life in vivo [8]: 5.39 ± 0.26 h | total protein half-life in vivo [9]: 12.4 ± 0.87 h | total protein half-life in vivo [10]: 6.42 h | total protein half-life in vivo [11]: 14.9 ± 1.6 h

MKQSHFFAHLSRLKLINRWPLMRNVRTENVSEHSLQVAMVAHALAAIKNRKFGGNVNAERIALLAMYHDASEVLTGDLPTPVKYFNSQIAQEYKAIEKIAQQKLVDMVPEELRDIFAPLIDEHAYSDEEKSLVKQADALCAYLKCLEELAAGNNEFLLAKTRLEATLEARRSQEMDYFMEIFVPSFHLSLDEISQDSPL
total protein half-life in vivo [1]: 4.544 ± 0.041 h | total protein half-life in vivo [2]: 4.34 ± 0.065 h | total protein half-life in vivo [3]: 4.17 ± 0.19 h | total protein half-life in vivo [4]: 5.57 ± 1.7 h | total protein half-life in vivo [5]: 4.07 ± 0.4 h | total protein half-life in vivo [12]: 2.94 ± 0.21 h | total protein half-life in vivo [6]: 5.64 ± 0.19 h | total protein half-life in vivo [8]: 4.16 ± 0.45 h | total protein half-life in vivo [9]: 7.12 ± 0.38 h | total protein half-life in vivo [10]: 4.86 ± 0.56 h | total protein half-life in vivo [11]: 9.76 ± 0.83 h

MIDTTLPLTDIHRHLDGNIRPQTILELGRQYNISLPAQSLETLIPHVQVIANEPDLVSFLTKLDWGVKVLASLDACRRVAFENIEDAARHGLHYVELRFSPGYMAMAHQLPVAGVVEAVIDGVREGCRTFGVQAKLIGIMSRTFGEAACQQELEAFLAHRDQITALDLAGDELGFPGSLFLSHFNRARDAGWHITVHAGEAAGPESIWQAIRELGAERIGHGVKAIEDRALMDFLAEQQIGIESCLTSNIQTSTVAELAAHPLKTFLEHGIRASINTDDPGVQGVDIIHEYTVAAPAAGLSREQIRQAQINGLEMAFLSAEEKRALREKVAAK
total protein half-life in vivo [1]: 5.4 ± 0.46 h | total protein half-life in vivo [2]: 4.73 ± 0.99 h | total protein half-life in vivo [3]: 4.41 ± 0.094 h | total protein half-life in vivo [4]: 5.25 ± 0.55 h | total protein half-life in vivo [5]: 4.49 ± 0.38 h | total protein half-life in vivo [12]: 2.88 ± 0.36 h | total protein half-life in vivo [7]: 10.6 ± 0.3 h | total protein half-life in vivo [8]: 4.68 ± 0.59 h | total protein half-life in vivo [9]: 7.15 ± 0.088 h | total protein half-life in vivo [10]: 5.63 ± 0.2 h | total protein half-life in vivo [11]: 11 ± 0.3 h

MKRNAKTIIAGMIALAISHTAMADDIKVAVVGAMSGPIAQWGDMEFNGARQAIKDINAKGGIKGDKLVGVEYDDACDPKQAVAVANKIVNDGIKYVIGHLCSSSTQPASDIYEDEGILMISPGATNPELTQRGYQHIMRTAGLDSSQGPTAAKYILETVKPQRIAIIHDKQQYGEGLARSVQDGLKAANANVVFFDGITAGEKDFSALIARLKKENIDFVYYGGYYPEMGQMLRQARSVGLKTQFMGPEGVGNASLSNIAGDAAEGMLVTMPKRYDQDPANQGIVDALKADKKDPSGPYVWITYAAVQSLATALERTGSDEPLALVKDLKANGANTVIGPLNWDEKGDLKGFDFGVFQWHADGSSTAAK
total protein half-life in vivo [1]: 5.85 ± 0.11 h | total protein half-life in vivo [2]: 6.16 ± 0.79 h | total protein half-life in vivo [3]: 6.48 ± 0.55 h | total protein half-life in vivo [4]: 5.84 ± 0.097 h | total protein half-life in vivo [5]: 6.01 ± 0.47 h | total protein half-life in vivo [12]: 3.077 ± 0.0084 h | total protein half-life in vivo [6]: 6.134 ± 0.039 h | total protein half-life in vivo [7]: 11.9 ± 0.26 h | total protein half-life in vivo [8]: 5.87 ± 0.27 h | total protein half-life in vivo [9]: 12.2 ± 0.64 h | total protein half-life in vivo [10]: 5.65 ± 0.13 h | total protein half-life in vivo [11]: 14.3 ± 1.1 h

MNNIQIRNYQPGDFQQLCAIFIRAVTMTASQHYSPQQISAWAQIDESRWKEKLAKSQVWVAIINAQPVGFISRIEHYIDMLFVDPEYTRRGVASALLKPLIKSESELTVDASITAKPFFERYGFQTVKQQRVECRGAWFTNFYMRYKPQH
total protein half-life in vivo [1]: 4.81 h | total protein half-life in vivo [2]: 3.71 ± 0.28 h | total protein half-life in vivo [3]: 3.82 h | total protein half-life in vivo [5]: 2.9 h | total protein half-life in vivo [6]: > 8 h | total protein half-life in vivo [8]: > 8 h | total protein half-life in vivo [11]: 9.48 ± 0.24 h

MPLSAQQLAAQKNLSYVLAEKLAQRILKGEYEPGTILPGEIELGEQFGVSRTAVREAVKTLTAKGMVLPRPRIGTRVMPQSNWNFLDQELLTWWMTEENFHQVIDHFLVMRICLEPQACLLAATVGTAEQKAHLNTLMAEMAALKENFRRERWIEVDMAWHEHIYEMSANPFLTSFASLFHSVYHTYFTSITSDTVIKLDLHQAIVDAIIQSDGDAAFKACQALLRSPDK
total protein half-life in vivo [1]: 4.46 ± 0.8 h | total protein half-life in vivo [2]: 6.01 h | total protein half-life in vivo [3]: 5.31 h | total protein half-life in vivo [4]: 6.07 ± 0.2 h | total protein half-life in vivo [5]: 5.77 ± 0.38 h | total protein half-life in vivo [12]: 2.88 h | total protein half-life in vivo [6]: 6.4 ± 1.1 h | total protein half-life in vivo [7]: 12.2 h | total protein half-life in vivo [8]: 3 h | total protein half-life in vivo [9]: 10.5 h | total protein half-life in vivo [10]: 4.72 ± 1.2 h | total protein half-life in vivo [11]: 11.4 ± 0.35 h

MRIEEDLKLGFKDVLIRPKRSTLKSRSDVELERQFTFKHSGQSWSGVPIIAANMDTVGTFSMASALASFDILTAVHKHYSVEEWQAFINNSSADVLKHVMVSTGTSDADFEKTKQILDLNPALNFVCIDVANGYSEHFVQFVAKAREAWPTKTICAGNVVTGEMCEELILSGADIVKVGIGPGSVCTTRVKTGVGYPQLSAVIECADAAHGLGGMIVSDGGCTTPGDVAKAFGGGADFVMLGGMLAGHEESGGRIVEENGEKFMLFYGMSSESAMKRHVGGVAEYRAAEGKTVKLPLRGPVENTARDILGGLRSACTYVGASRLKELTKRTTFIRVQEQENRIFNNL
total protein half-life in vivo [1]: 6.23 ± 0.89 h | total protein half-life in vivo [2]: 4.46 ± 0.16 h | total protein half-life in vivo [3]: 4.34 ± 0.1 h | total protein half-life in vivo [4]: 5.46 ± 0.17 h | total protein half-life in vivo [5]: 4.22 ± 0.21 h | total protein half-life in vivo [12]: 2.77 ± 0.19 h | total protein half-life in vivo [6]: 6.13 ± 0.25 h | total protein half-life in vivo [7]: 9.9351 ± 0.0054 h | total protein half-life in vivo [8]: 4.71 ± 0.14 h | total protein half-life in vivo [9]: 7.56 ± 0.75 h | total protein half-life in vivo [10]: 6.2 ± 0.3 h | total protein half-life in vivo [11]: 11 ± 0.55 h

MIQKSKIKDLVVFTDENNSKYLNVLNDFLSYNINIIKVFRSIDDTKVMLIDTDYGKLILKVFSPKVKRNERFFKSLLKGDYYERLFEQTQKVRNEGLNTLNDFYLLAERKTLRFVHTYIMIIEYIDGIELCDMPDIDDALKNKIQQSINALHQHGMVSGDPHRGNFIIKNGEVRIIDLSGKRASAQRKAKDRIDLERHYGIKNEIRDLGYYLLVYRKKMRNFMRRLKGKPAR
total protein half-life in vivo [2]: 6.73 ± 0.18 h | total protein half-life in vivo [3]: 5.7 ± 0.17 h | total protein half-life in vivo [4]: 6.35 ± 0.15 h | total protein half-life in vivo [5]: 6.04 ± 0.22 h | total protein half-life in vivo [12]: 3.31 ± 0.043 h | total protein half-life in vivo [6]: 5.885 ± 0.011 h | total protein half-life in vivo [7]: 9.9 ± 1 h | total protein half-life in vivo [8]: 5.86 ± 0.76 h | total protein half-life in vivo [9]: 12.09 ± 0.019 h | total protein half-life in vivo [10]: 5.84 ± 0.34 h | total protein half-life in vivo [11]: 11.8 ± 0.82 h
